How the values were obtained:
IL13RA1 = molecular target: T1, IL13RA1; assay: ELISA on coated IL13RA1-Fc-His
T1 construct: coated protein in the ELISA; also called IL13RA1-Fc-His (R&D Systems)
T1 chain: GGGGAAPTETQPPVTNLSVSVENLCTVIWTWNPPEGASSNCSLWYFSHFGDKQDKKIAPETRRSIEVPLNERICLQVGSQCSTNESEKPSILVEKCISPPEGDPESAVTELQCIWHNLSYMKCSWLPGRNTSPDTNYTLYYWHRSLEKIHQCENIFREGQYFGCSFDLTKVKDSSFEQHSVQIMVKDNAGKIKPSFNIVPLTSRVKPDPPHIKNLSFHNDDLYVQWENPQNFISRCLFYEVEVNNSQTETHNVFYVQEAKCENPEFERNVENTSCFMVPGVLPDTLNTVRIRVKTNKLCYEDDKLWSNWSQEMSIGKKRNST
Description: Recombinant purified ECDs (50-150 ng) of each putative target protein were coated, incubated with 150 ng of the indicated primary antibody, and binding was detected using a peroxidase-conjugated anti-human Fab secondary antibody. Heatmap represents averages of technical triplicates. (8B) Target validation via siRNA knockdown. H929 cells were transfected with siRNA pools targeting the putative antibody targets ICAM1, CADM1, and PTPRG. Cells were then subjected to cognate IgG binding analysis via flow cytometry. (NT, non-targeting siRNA).
ELISA ELISA was conducted as described previously. Briefly, 50-150 ng of antigen was coated overnight in half-area 96-well plates at 4° C., blocked with 3% BSA at 37° C. for 1 h, and 150 ng of chimeric rabbit/human IgG1 was added, incubating for 2 h at 37° C. […] After incubating at 37° C. for 15 min-1 h (depending on intensity of controls), data were acquired using a SpectraMax M5 plate reader (Molecular Devices).

[1] = molecular target: T2, GARS, endogenous in H929 multiple myeloma cells (human, UniProt P41250 37-739, limits assumed); assay: flow cytometry, H929 + vehicle; None 513; surface target GARS putative
T2 construct: Native protein pulled down from H929 lysates; also called Glycyl-tRNA synthetase; GlyRS
T2 sequence: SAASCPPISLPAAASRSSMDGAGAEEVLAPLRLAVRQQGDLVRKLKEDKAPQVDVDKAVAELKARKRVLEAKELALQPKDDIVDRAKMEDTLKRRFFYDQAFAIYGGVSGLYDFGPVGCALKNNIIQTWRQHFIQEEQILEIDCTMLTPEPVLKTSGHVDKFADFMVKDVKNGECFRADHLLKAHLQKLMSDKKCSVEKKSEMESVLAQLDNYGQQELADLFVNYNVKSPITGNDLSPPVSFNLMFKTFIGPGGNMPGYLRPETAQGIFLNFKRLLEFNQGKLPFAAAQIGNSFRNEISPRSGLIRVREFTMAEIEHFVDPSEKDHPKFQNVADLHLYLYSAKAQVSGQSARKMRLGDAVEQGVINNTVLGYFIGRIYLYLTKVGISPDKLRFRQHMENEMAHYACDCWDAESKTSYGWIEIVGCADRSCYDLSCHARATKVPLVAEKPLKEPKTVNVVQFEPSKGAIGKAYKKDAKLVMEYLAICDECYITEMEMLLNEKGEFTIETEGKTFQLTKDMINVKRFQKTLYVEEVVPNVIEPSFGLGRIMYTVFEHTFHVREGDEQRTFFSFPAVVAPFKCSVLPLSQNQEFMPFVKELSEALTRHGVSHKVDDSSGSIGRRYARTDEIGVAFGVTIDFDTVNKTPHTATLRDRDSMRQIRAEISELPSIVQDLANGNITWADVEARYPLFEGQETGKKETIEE

[2] = molecular target: T2, GARS, endogenous in H929 multiple …; assay: flow cytometry, H929 + CADM1 siRNA; None 0.89; surface target GARS putative
[3] = molecular target: T2, GARS, endogenous in H929 multiple …; assay: flow cytometry, H929 + GARS siRNA (siRNA against the putative target); None 0.2
PTPRG on U266 cells = molecular target: T3, PTPRG on U266 cells (human, UniProt P23470); assay: flow cytometry, IgG1 on U266 cells
T3 construct: endogenous on U266 multiple myeloma cells; also called HW-1 target on U266
Description: Staining protocol. Cells were harvested (5×10⁴ cells per sample), washed once with phosphate-buffered saline (PBS) at RT, and a second time with ice-cold FACS buffer (PBS, 0.5% BSA, 2 mM EDTA, 0.1% NaN₃). Cells were stained in 50 μL of primary antibody for 30 min on ice, washed twice with 100 μL FACS buffer, stained with 50 μL of diluted secondary antibody, washed two more times in FACS, and then resuspended in 50 μL FACS buffer. Samples were acquired on an Accuri C6 Plus or a BD FACSCanto II flow cytometer (both from BD Biosciences). Data were analyzed using FlowJo version 10 software. Primary antibodies: Fab (10 μg/mL), IgG1 (0.1 to 50 μg/mL), or 25 μL polyclonal Fabs from periplasmic extracts. Polyclonal Fabs were produced by diluting bacterial stocks by a factor of 100 in autoinduction media and incubating overnight to induce expression as previously described. […] Viability stains: DAPI (Cell Signaling Technology) or SYTOX AADvanced Dead Cell Stain (Thermo Fisher Scientific). Labeling: The panel of chimeric rabbit/human IgG1s was labeled using the Alexa Fluor 647 Labeling Kit (Thermo Fisher Scientific, #A20173) to facilitate single-step staining. Competition: Unlabeled IgG1s were added at saturating concentrations of 60 μg/mL to block the target receptors, incubating on ice for 30 min, followed by the addition of an equal volume of the Alexa Fluor 647 labeled antibody at 2 μg/mL, and the mixture was incubated on ice for another 30 min.

[4] = molecular target: T4, PTPRG, endogenous in H929 multiple myeloma cells (human, UniProt P23470 20-1445); assay: flow cytometry, H929 + vehicle; None 2.74
T4 construct: Native protein on H929 cells (flow cytometry, siRNA knockdown) and in H929 lysates (IP/MS); also called phosphatase receptor type γ

[5] = molecular target: T4, PTPRG, endogenous in H929 multiple …; assay: flow cytometry, H929 + CADM1 siRNA; None 0.89
[6] = molecular target: T4, PTPRG, endogenous in H929 multiple …; assay: flow cytometry, H929 + NT Green siRNA; None 416
[7] = molecular target: T4, PTPRG, endogenous in H929 multiple …; assay: flow cytometry, H929 + NT Green siRNA; None 1.35

T4 sequence (P23470 20-1445 limits assumed): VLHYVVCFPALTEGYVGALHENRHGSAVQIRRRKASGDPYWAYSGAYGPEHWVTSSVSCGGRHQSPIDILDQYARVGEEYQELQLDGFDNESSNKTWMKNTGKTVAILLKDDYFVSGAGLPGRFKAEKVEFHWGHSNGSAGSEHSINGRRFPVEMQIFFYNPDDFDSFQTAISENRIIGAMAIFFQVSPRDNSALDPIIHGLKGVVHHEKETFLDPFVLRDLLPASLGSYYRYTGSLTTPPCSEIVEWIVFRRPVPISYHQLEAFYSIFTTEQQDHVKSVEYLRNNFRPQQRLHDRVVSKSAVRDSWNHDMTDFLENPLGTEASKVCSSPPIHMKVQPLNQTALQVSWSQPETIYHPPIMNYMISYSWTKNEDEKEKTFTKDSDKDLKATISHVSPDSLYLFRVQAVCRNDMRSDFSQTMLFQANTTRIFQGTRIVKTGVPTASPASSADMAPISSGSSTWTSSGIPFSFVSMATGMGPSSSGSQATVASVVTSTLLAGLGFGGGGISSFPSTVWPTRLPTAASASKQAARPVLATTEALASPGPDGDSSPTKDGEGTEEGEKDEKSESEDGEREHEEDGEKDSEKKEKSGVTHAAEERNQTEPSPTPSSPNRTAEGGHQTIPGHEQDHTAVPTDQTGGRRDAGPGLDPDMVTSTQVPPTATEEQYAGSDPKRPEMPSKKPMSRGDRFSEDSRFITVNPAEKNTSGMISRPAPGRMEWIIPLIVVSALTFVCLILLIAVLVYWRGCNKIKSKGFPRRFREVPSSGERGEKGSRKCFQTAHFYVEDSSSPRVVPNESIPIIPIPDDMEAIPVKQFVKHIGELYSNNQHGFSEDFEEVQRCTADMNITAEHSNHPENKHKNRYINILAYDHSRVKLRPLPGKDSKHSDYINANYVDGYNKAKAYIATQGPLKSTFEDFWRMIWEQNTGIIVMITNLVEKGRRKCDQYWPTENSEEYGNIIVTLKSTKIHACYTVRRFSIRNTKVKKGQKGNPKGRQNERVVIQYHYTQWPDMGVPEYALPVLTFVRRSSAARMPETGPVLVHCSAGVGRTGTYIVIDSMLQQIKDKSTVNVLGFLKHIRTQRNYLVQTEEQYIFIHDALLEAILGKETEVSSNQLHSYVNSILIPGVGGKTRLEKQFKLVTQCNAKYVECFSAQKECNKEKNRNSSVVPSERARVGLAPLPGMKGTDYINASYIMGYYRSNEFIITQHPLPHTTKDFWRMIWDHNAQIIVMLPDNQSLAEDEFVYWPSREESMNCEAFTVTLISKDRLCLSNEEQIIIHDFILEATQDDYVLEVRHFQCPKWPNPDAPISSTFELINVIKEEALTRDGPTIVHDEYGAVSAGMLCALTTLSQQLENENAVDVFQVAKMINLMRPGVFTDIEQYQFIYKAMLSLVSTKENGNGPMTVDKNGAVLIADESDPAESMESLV
T3 sequence (P23470 20-1445 limits assumed): as above

Binder | binding result (IL13RA1) | mAb binding (MFI) [1] | Cells stained (%) [2] [%] | Cells stained (%) [3] [%] | antibody-bound positive cells (%) (PTPRG on U266 cells) | Cells stained (%) [4] [%] | Cells stained (%) [5] [%] | mAb binding (MFI) [6] | Cells stained (%) [7] [%]
HW-8 chimeric rabbit-human IgG1 LA/LA/PG (antibody, V domains shown, Fc-silenced (L234A/L235A/P329G) IgG1, kappa; Alexa Fluor 647-labeled in single-step flow cytometry; Cluster C-45) VH: QSLEESGGRLVTPGTPLTLTCTVSGFSLSSYAMSWVRQAPGKGLEWIGAISTGGSTTYASWAKGRFTISKTSSTTVDLKMTSLTTEDTATYFCVRHFRLWGPGTLVTISS VL: QVLTQTPSSVSAAVGGTVTIKCQASQSIGSALAWFQQKPGQRPKLLIYRASNLASGVPSRFKGSGSGTEFALTISGVQREDAATYYCLGGAAAVWAFGAGTNVEIKR | no binding (tested: 150 ng IgG1 per well) | 16700 | 89.3 | 99 | – | – | – | – | –
HW-16 chimeric rabbit-human IgG1 LA/LA/PG (antibody, V domains shown, Fc-silenced (L234A/L235A/P329G) IgG1, kappa; Alexa Fluor 647-labeled in single-step flow cytometry; Cluster C-45) VH: QSLEESGGRLVTPGTPLTLTCTASGFSLSSYAMSWVRQAPGKGLEWIGTMPTGGGTYYASWAKGRFTISKTSTTVDLQITSPTTEDTATYFCAKHWNIWGPGTLVTISS VL: DIVLTQTPSSTSTAVGDTVTINCRASQSIGRNLAWFQQKPGQPPKLLIYRASNLASGVPSRFKGSGSRTQFTLTISGVQREDAATYYCLGSYSSSDTAFGGGTELEILR | – | 61100 | 99 | 99.1 | – | – | – | – | –
HW-56 chimeric rabbit-human IgG1 LA/LA/PG (antibody, V domains shown, Fc-silenced (L234A/L235A/P329G) IgG1, kappa; Alexa Fluor 647-labeled in single-step flow cytometry; Cluster C-45) VH: QSVKESEGGLFKPTDTLTLTCTASGFTVSTNAVTWVRQAPGNGLEYIGTIGRSGSAYFASWAKRRSTLTRDINLNTVTLKMTSLTAADTATYFCVRGSPGYRTAISIWGPGTLVTISS VL: AVMTQTPSSTSAAVEGTVTINCQASQSISNRLSWFQQKPGQPPKLLIYQASTLASGVPSRFKGSGSGTEFTLTISGVQREDAATYYCLGSYSSSDASFGGGTKLEIKR | – | 481000 | 99.6 | 99.9 | – | – | – | – | –
HW-42 chimeric rabbit-human IgG1 LA/LA/PG (antibody, V domains shown, Fc-silenced (L234A/L235A/P329G) IgG1, lambda; Alexa Fluor 647-labeled in single-step flow cytometry; Cluster C-1) VH: QSVKESEGGLFKPADTLTLTCTVSGFSLSSNEISWVRQAPGEGLEYIGIIDTGGRAYYAVWARSRSTITRNTNLNTVTLKMTSLTAADTATYFCARGGVDTEWYAFSSWGPGTLVTVPS VL: SFVLTQPASVQVNLGQTVSLTCTADTLSRRYASWYQQKPGQAPVLLIFRDTSRPSGVPDRFSGSSSGDTATLTISGAQAGDEADYYCATSDGSGSNYQYVFGGGTQLTVTG | no binding (tested: 150 ng IgG1 per well) | – | – | – | 64.5 | 97.5 | 97.3 | 8410 | 97.2
HW-70 chimeric rabbit-human IgG1 LA/LA/PG (antibody, V domains shown, Fc-silenced (L234A/L235A/P329G) IgG1, lambda; Alexa Fluor 647-labeled in single-step flow cytometry; Cluster C-1) VH: QSLEESGGRLVTPGTPLTLTCTVSGFSLSSNAMSWVRQAPGKGLEWIGTIDGYGYTYYASWAKGRFTVSKTSTTVDLKITSPTTEDTATYFCAREIYLGSNFWGPGTLVTISS VL: SFVLTQPASVQVNLGQTVSLTCTADTLSRRYASWYQQKPGQAPVLLIYRDTSRPSGVPDRFSGSSSGNTATLTISGAQAGDEADYYCATADGSGSSYQFVFGGGTQLTVTG | no binding (tested: 150 ng IgG1 per well) | – | – | – | 76 | 98.6 | 98.7 | 12600 | 98.9
HW-45 chimeric rabbit-human IgG1 LA/LA/PG (antibody, V domains shown, Fc-silenced (L234A/L235A/P329G) IgG1, lambda; Alexa Fluor 647-labeled in single-step flow cytometry; Prototype of cluster C-45) VH: QKQLVESGGRLVTPGTPLTLTCTVSGFSLSSYAMGWFRQAPGKGLEWIGIINSYGSTYYASWAKGRFTISKTSTTVDLKITSPTTEDTATYFCGRRIGSARFDPWGPGTLVTVSS VL: SFVLTQPASVQVNLGQTVSLTCTADTLSRSYASWYQQKPGQAPVLLIYRDTRRPSGVPDRFSGSSSGNTATLTISGAQAGDEADYYCATSDGSGSSYRLVFGGGTQLTVTG | – | 25400 | 97 | 98.5 | – | – | – | – | –
HW-28 chimeric rabbit-human IgG1 LA/LA/PG (antibody, V domains shown, Fc-silenced (L234A/L235A/P329G) IgG1, lambda; Alexa Fluor 647-labeled in single-step flow cytometry; Cluster C-45) VH: QKQLVESGGRLVTPGTPLTLTCTASGFSLSSNAMSWVRQAPGEGLQWIGTISSGGSTYYASWAKGRFTISKTSTTVTLKMTSLTTEDTATYFCARGADLHRLWGPGTLVTVSS VL: SFVLTQPASVQVNLGQTVSLTCTGKPLSRSFASWYQQKPGQAPVLVIYRDTSRPSGVPDRFSGSSSGNTATLTISGAQAGDEADYYCATSDGSGSSYQYVFGGGTQLTVTG | – | 44400 | 98.5 | 98.3 | – | – | – | – | –
HW-81 chimeric rabbit-human IgG1 LA/LA/PG (antibody, V domains shown, Fc-silenced (L234A/L235A/P329G) IgG1, lambda; Alexa Fluor 647-labeled in single-step flow cytometry; Cluster C-45) VH: QKQLVESGGGLVTPGGTLTLTCTVSGFSLSSNGVSWVRQAPGKGLEYIGLIRSIGSTYYATWAKGRFTISKTSTTVDLKITSPTTEDTATYFCARGGYRNGFKLWGPGTLVTVSS VL: QPVLTQSPSVSAALGASAKLTCTLSSAHKTYYIEWYQQQHPGKAPRYLMQLQSDGSYTKGTGVPDRFSGSSSGADRYLIISSVQAEDEADYICGVIDSAVYVFGGGTQLTVTG | no binding (tested: 150 ng IgG1 per well) | 682000 | 99.8 | 99.4 | – | – | – | – | –

Reference: patent publication US20260049134A1 (UNIVERSITY OF FLORIDA RESEARCH FOUNDATION, published 2026)
